Measurements: patent US20240301068A1 (BEIJING HANMI PHARMACEUTICAL, published 2024)
Read-outs that look alike come from different tables or passages of the source.

Key:
[1] = target: T1, recombinant human PD-L1 (Sino Biological Inc.) (human, UniProt Q9NZQ7 19-239); test: ELISA, plate coated with 1 ug/mL recombinant human PD-L1, anti-human IgG-HRP, OD450
Procedure: (§1) A 96-well high-adsorption ELISA plate was coated with 1 μg/mL of the recombinant human PD-L1, cynomolgus PD-L1, rat PD-L1 and mouse PD-L1 (all purchased from Sino Biological Inc.), at 100 μL per well using carbonate buffer solution, pH=9.6 at 4° C. overnight. The plate was washed 5 times with PBST, and then blocked using PBST with 1% BSA, 300 μL/well, and incubated at 25° C. for 1 hour, and then washed 5 times with PBST. The chimeric anti-human PD-L1 antibody samples serially diluted in PBST with 1% BSA were added, 100 μL/well, incubated at 25° C. for 1 hour, and then washed 5 times with PBST. The horseradish peroxidase-labeled anti-human IgG antibody (Chemicon, catalog number AP309P) diluted 1:10000 in PBST with 1% BSA was then added, 100 μL per well, and incubated at 25° C. for 1 hour. The plate was washed 5 times with PBST. The colorimetric substrate TMB was added, 100 μL/well, and developed at room temperature for 10 minutes. 1M H₂SO₄ was added, 100 μL/well, to stop the development. The absorbance at 450 nm was read on a microplate reader.

[2] = target: T1, recombinant human PD-L1 (Sino …); test: affinity determination (dissociation constant), method not stated
[3] = target: T2, recombinant human PD-L2 (Sino Biological Inc.) (human, UniProt Q9BQ51 20-219); test: ELISA, plate coated with 1 ug/mL recombinant human PD-L2 (printed B7-DC), anti-human IgG-HRP, OD450; antibody concentration not shown
T2 sequence (looked up): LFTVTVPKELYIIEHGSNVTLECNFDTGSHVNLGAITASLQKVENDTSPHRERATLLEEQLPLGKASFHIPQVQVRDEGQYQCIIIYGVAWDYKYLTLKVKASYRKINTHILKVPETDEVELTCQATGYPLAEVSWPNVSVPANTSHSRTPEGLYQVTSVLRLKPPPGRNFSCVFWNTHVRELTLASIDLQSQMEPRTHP
Procedure: (§2) The plate was washed 5 times with PBST, and then blocked using PBST with 1% BSA, 300 μL/well, and incubated at 25° C. for 1 hour, and then washed 5 times with PBST. […] The horseradish peroxidase-labeled anti-human IgG antibody (Chemicon, catalog number AP309P) diluted 1:10000 in PBST with 1% BSA was then added, 100 μL per well, and incubated at 25° C. for 1 hour. The plate was washed 5 times with PBST. The colorimetric substrate TMB was added, 100 μL/well, and developed at room temperature for 10 minutes. 1M H₂SO₄ was added, 100 μL/well, to stop the development. The absorbance at 450 nm was read on a microplate reader.

[4] = target: T3, recombinant human B7-H2 (Sino Biological Inc.) (human, UniProt O75144 19-258, limits assumed); test: ELISA, plate coated with 1 ug/mL recombinant human B7-H2, anti-human IgG-HRP, OD450; antibody concentration not shown
T3 sequence (looked up): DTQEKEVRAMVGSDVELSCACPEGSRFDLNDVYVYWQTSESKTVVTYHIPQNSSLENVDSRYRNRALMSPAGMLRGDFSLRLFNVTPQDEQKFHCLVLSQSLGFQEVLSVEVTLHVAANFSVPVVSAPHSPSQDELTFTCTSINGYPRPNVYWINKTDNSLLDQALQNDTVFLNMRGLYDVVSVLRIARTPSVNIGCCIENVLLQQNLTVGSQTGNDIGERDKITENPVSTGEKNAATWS
Procedure: as §2

[5] = target: T1, recombinant human PD-L1 (Sino …); test: SPR, Biacore X100
Procedure: (§3) This instrument utilizes optical surface plasmon resonance technology to detect the association and dissociation between the molecules coated on the biochip and the molecules to be tested. Association constants and dissociation constants were analyzed and calculated by Biacore X100 evaluation software. […]

[6] = target: T4, recombinant human PD-L1-Fc protein (human, UniProt Q9NZQ7 19-238, limits assumed); test: competition ELISA: PD-L1-Fc coated, competitor biotin-labelled PD-1-Fc
T4 construct: Prepared by Beijing Hanmi Pharmaceutical; The GenBank number is NP_001254635.1
Procedure: (§4) A 96-well high-adsorption ELISA plate was coated with 1 μg/mL of the recombinant human PD-L1-Fc at 100 μL per well using carbonate buffer solution, pH=9.6 at 4° C. overnight. The plate was washed 5 times with PBST, and then blocked using PBST with 1% BSA, 300 μL/well, and incubated at 25° C. for 1 hour, and then washed 5 times with PBST. […] The Streptavidin-HRP (BD Pharmingen, catalog number 554066) diluted 1:1000 in PBST with 1% BSA was then added, 100 μL per well, and incubated at 25° C. for 1 hour. The plate was washed 5 times with PBST. The colorimetric substrate TMB was added, 100 μL/well, and developed at room temperature for 10 minutes. 1M H₂SO₄ was added, 100 μL/well, to stop the development. The absorbance at 450 nm was read on a microplate reader.

[7] = target: T4, recombinant human PD-L1-Fc protein; test: blocking ELISA, plate coated with 1 ug/mL human PD-L1-Fc; blocked ligand biotin-labelled PD-1-Fc at 20 nM final, streptavidin-HRP, OD450
Procedure: as §4

[8] = target: recombinant mouse PD-L1 (Sino Biological Inc.) (mouse, UniProt Q9EP73 19-238); test: ELISA, plate coated with 1 ug/mL recombinant mouse PD-L1, anti-human IgG-HRP, OD450
Procedure: as §1

[9] = target: recombinant human CD28 (Sino Biological Inc.) (human, UniProt P10747 19-152); test: ELISA, plate coated with 1 ug/mL recombinant human CD28, anti-human IgG-HRP, OD450; antibody concentration not shown
Procedure: as §2

[10] = target: recombinant human CTLA4 (Sino Biological Inc.) (human, UniProt P16410 36-162); test: ELISA, plate coated with 1 ug/mL recombinant human CTLA4, anti-human IgG-HRP, OD450; antibody concentration not shown
Procedure: as §2

[11] = target: T1, recombinant human PD-L1 (Sino …); test: SPR, Biacore X100; remark: listed apart in the source
Procedure: as §3

T1 sequence (Q9NZQ7 19-239 limits assumed): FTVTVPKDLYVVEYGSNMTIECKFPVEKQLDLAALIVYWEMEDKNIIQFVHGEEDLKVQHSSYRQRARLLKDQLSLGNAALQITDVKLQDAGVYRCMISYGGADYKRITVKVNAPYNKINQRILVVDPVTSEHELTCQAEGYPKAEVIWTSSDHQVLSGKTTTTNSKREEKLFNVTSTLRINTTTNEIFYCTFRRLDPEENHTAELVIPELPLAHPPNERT
T4 sequence (Q9NZQ7 19-238 limits assumed): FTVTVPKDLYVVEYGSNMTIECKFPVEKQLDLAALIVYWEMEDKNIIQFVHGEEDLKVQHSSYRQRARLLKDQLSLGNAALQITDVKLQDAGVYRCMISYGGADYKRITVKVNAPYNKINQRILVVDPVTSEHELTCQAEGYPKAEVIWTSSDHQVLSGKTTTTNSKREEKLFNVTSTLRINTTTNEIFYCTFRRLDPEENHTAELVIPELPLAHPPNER
recombinant mouse PD-L1 (Sino Biological Inc.), sequence (Q9EP73 19-238 limits assumed): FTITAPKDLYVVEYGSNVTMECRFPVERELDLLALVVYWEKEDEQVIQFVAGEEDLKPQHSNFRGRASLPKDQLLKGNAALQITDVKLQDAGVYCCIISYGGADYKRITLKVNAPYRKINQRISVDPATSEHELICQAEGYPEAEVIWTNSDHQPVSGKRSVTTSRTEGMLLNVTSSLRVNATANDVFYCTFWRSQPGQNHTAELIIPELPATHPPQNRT
recombinant human CTLA4 (Sino Biological Inc.), sequence (P16410 36-162 limits assumed): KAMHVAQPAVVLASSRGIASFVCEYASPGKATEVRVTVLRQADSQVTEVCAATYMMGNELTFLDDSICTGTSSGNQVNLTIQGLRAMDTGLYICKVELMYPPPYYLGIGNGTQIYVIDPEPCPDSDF

B1: chimeric anti-human PD-L1 monoclonal antibody (antibody, human IgG1, kappa, V domains shown)
VH: EVQLQQSGAELVKPGASVKLSCTASGFNIEDTYIHWVMQRPEQGLEWIGRIDPANGNTKYDPKFQGKATITADTSSNTAYLQLSSLTSEDTAVYYCGRGLGAWFAYWGQGTLVTVSA
VL: DIVMTQSHKVMSTSVGDRVTITCKASQDVHTAVAWIHQKPGQSPKLLIYSASNRYTGVPDRFTGSGSGTDFTFTISSVQAEDLAVYYCQQHYITPLTFGAGTTLELKR
notes: expressed in ExpiCHO cells; also called Chimeric mAb; Chimeric antibody
B1 was tested, and the EC50 [1] was 0.056 nM, the koff [2] was 0.000531 s⁻¹ and the binding result [3] was “no binding”. The binding result [4] was “no binding”, the Kd [5] was 0.63 nM and the koff [5] was 0.000596 s⁻¹. It also gave a kon [5] of 946000 M⁻¹ s⁻¹, an IC50 [6] of 0.596 nM and an IC50 [7] of 1.08 nM. B1: no binding (tested: about 20 nM (last point on the log axis)) [8]; no binding [9]; no binding [10]. For the same binder, the Kd [11] was 1.17 nM, the koff [11] was 0.000594 s⁻¹ and the kon [11] was 507000 M⁻¹ s⁻¹.
